Source: patent US8597902B2, “Peptide protection against ultraviolet light toxicity” (Helix Biomedix, Inc., priority 2009, dated 2013)
Ends that are not written are not given here.

Legend:
[1] = biological target: T1, Activated human Chk2 enzyme (Homo sapiens, UniProt O96017); test: K-LISA Checkpoint Activity Kit: Chk2 phosphorylation of biotinylated cdc25c surrogate substrate peptide; type: biochemical; conditions: peptide 50 μg/mL final concentration; for inhibition of the activity of Chk2 against the substrate peptide (in words): carboxy-terminal amidated peptides, absorbance 450/540 nm
T1 construct: purchased Sigma (St. Louis, MO)
T1 sequence (O96017 whole entry): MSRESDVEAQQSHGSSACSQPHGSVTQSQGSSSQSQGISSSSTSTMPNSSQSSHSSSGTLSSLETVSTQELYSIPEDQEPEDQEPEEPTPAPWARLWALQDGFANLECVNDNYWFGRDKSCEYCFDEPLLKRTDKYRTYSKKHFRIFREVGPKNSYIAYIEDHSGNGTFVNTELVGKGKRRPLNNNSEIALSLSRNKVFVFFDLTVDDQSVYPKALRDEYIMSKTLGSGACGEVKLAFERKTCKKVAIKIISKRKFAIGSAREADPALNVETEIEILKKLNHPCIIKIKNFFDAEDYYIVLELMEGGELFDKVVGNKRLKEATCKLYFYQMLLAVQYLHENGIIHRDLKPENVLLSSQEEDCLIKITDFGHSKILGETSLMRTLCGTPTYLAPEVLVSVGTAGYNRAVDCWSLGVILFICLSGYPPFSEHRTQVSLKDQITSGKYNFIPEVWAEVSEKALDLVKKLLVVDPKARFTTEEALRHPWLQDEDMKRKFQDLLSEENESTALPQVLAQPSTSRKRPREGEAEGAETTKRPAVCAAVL
Procedure: Activated human Chk2enzyme for these tests was obtained from Sigma (St. Louis, MO).
This incubation allowed for substrate phosphorylation by Chk2 and substrate capture in a single step. Following incubation, the phosphorylated substrate was detected using an anti-phosphoserine primary antibody, a horseradish peroxidase (HRP)-conjugated secondary antibody and TMB (tetramethylbenzidine) substrate for color development (the primary and secondary antibodies, and TMB, were provided in the K-LISA™ Checkpoint Activity Kit). Assay sensitivity was increased by the addition of the Stop solution provided in the kit. Relative Chk2 activity was determined by reading the absorbance of each well at dual wavelengths 450/540 nm.

[2] = biological target: Activated human checkpoint kinase 2 (Chk2) (human)

Row | inhibition of the activity of Chk2 against the substrate peptide (in words) [1] | reduction of Chk2 phosphorylation activity ([1]; versus control Chk2 activity) | Reduction of Chk2 phosphorylation activity (K-LISA, absorbance 450/540 nm) [2] [%] | Molecule
1 | inhibited | – | – | FHSIYQSH (FHSIYQSH-NH2; listed as Homo sapiens) [SEQ ID NO:6]
2 | inhibited | – | – | HSLYQSH (HSLYQSH-NH2; listed as Homo sapiens) [SEQ ID NO:8]
3 | inhibited | about 48% | – | SLYQS (not fully specified (C-terminus); listed as Homo sapiens) [SEQ ID NO:10]
4 | inhibited | – | – | YHSIYQSHI (YHSIYQSHI-NH2; listed as Homo Sapiens) [SEQ ID NO:3]
5 | inhibited | – | – | YHSLYESK (YHSLYESK-NH2; listed as Homo sapiens) [SEQ ID NO:5]
6 | inhibited | – | – | YHSLYQSHL (YHSLYQSHL-NH2; listed as Homo sapiens) [SEQ ID NO:2]
7 | – | – | 48 | SLYQS-NH2 [SEQ ID NO:10 peptide (SLYQS; Ser-Leu-Tyr-Gln-Ser), carboxy-terminal amidated]
